Measured values: US20140087995A1 (published 2014)

T1: rat calcitonin receptor (rat, UniProt P32214 25-516)
T1 construct: whole, on cells; membranes of transiently transfected BHK tk'ts 13 cells (Assay VIII); also called rCTR; rat calcitonin (a) receptor
T1 sequence (looked up): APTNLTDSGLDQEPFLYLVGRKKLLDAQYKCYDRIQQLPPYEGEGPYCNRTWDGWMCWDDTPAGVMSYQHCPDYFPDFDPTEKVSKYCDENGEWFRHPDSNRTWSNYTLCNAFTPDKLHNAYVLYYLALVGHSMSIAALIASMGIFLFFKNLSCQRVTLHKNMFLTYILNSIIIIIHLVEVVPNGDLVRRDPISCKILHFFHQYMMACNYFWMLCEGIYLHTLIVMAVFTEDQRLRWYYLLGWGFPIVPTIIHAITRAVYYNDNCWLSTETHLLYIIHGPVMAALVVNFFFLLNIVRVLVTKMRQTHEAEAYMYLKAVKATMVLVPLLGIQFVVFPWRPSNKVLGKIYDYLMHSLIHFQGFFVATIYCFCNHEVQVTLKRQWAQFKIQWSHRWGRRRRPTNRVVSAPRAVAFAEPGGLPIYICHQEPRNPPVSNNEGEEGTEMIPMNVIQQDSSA

T2: human calcitonin receptor (human, UniProt P30988 25-474)
T2 construct: whole, on cells; membranes of stably transfected BHK cells (Assay VII); also called hCTR; hCT
T2 sequence (looked up): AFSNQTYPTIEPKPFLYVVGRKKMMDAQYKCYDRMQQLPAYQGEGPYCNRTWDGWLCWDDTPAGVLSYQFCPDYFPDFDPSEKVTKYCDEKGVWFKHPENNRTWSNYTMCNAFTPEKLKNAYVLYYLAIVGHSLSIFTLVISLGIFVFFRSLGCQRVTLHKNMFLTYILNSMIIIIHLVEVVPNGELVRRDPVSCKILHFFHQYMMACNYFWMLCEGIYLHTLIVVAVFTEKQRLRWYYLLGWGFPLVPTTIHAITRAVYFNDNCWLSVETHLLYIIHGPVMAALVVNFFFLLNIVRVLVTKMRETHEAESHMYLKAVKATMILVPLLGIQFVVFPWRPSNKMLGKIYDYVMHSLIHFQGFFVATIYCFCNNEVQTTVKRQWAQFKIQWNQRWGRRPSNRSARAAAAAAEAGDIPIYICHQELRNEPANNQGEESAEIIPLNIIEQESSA

T3: rat amylin receptor (rat calcitonin receptor + rat RAMP 3) (rat, UniProt P32214 25-516; Q9JJ73 23-147)
T3 construct: whole, on cells; membranes of transiently transfected BHK tk'ts 13 cells (Assay VI); also called rAmylin-R; rat amylin 3(a) receptor
T3 sequence (looked up) 1: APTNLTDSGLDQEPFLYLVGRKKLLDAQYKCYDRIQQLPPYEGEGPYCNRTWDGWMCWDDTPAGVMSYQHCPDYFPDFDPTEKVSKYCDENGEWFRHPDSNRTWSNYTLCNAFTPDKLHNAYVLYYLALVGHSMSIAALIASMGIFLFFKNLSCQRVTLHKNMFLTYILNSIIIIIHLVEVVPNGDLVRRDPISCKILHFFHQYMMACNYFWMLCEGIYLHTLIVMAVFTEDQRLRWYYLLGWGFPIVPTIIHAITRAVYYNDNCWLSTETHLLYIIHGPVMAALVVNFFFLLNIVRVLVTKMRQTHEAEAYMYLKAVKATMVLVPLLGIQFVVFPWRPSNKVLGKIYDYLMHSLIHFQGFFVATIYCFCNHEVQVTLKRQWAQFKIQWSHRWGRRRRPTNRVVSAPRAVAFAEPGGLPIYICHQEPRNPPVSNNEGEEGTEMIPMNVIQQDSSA
T3 sequence (looked up) 2: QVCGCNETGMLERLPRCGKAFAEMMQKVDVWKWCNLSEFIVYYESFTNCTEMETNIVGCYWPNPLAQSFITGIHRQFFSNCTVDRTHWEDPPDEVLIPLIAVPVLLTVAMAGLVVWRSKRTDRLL


Legend:
rat calcitonin receptor [1] = biological target: T1, rat calcitonin receptor; assay: IC50 on rat calcitonin receptor divided by IC50 on rat amylin receptor (SPA competition)
[2] = biological target: T2, human calcitonin receptor; assay: IC50 on human calcitonin receptor divided by IC50 on human amylin receptor (SPA competition)
Description: The resulting pellet was resuspended, homogenized and centrifuged (20.000 rpm, 15 min) in a buffer containing 20 mM Na-HEPES and 0.1 mM EDTA (pH 7.4, buffer 2). The resulting pellet was resuspended in buffer 2 and protein concentration was measured (BCA protein Assay, Pierce). The homogenate was kept cold during the whole procedure. The membranes were kept at −80° C. until use. The assay was performed in a 384 well Optiplate (PerkinElmer) in a total volume of 40 ul. Membranes were mixed with SPA beads. Final concentration of membranes 35 ng/μL final and SPA beads was 0.05 mg/well. Test-compounds were dissolved in DMSO and further diluted in assay buffer (50 mM Hepes, pH 7.4, 1 mM CaCl2, 5 mM MgCl₂, 0.1% OA and 0.02% Tween20). […] The final mixture was incubated with shaking at 400 rpm for 120 min at 25° C. prior to centrifugation (1500 rpm, 10 min). Samples were analyzed on TopCounter™ (Packard). The IC₅₀ was calculated using (one site binding competition analysis) GraphPad Prism5 as a measure of receptor affinity.
Membranes were prepared in the following way; the cells were rinsed with PBS and incubated with Versene for approximately 5 min before harvesting. The cells were flushed with PBS and the cell-suspension was centrifuged for 5 min at 1000 rpm. Cells were homogenized (Ultrathurrax) in a buffer containing 20 mM Na-HEPES and 10 mM EDTA (pH 7.4) and centrifuged at 20.000 rpm for 15 min. The resulting pellet was resuspended, homogenized and centrifuged (20.000 rpm, 15 min) in a buffer containing 20 mM Na-HEPES and 0.1 mM EDTA (pH 7.4, buffer 2). The resulting pellet was resuspended in buffer 2 and protein concentration was measured (BCA protein Assay, Pierce). The homogenate was kept cold during the whole procedure. The membranes were kept at −80° C. until use. Assay was performed in a 384 well Optiplate (PerkinElmer) in a total volume of 40 ul. Membranes were mixed with SPA beads.

[3] = biological target: T3, rat amylin receptor (rat calcitonin …); assay: SPA competition with 125I-rat amylin, membranes of BHK cells with rat calcitonin receptor + rat RAMP3 (Assay VI)
rat calcitonin receptor [4] = biological target: T1, rat calcitonin receptor; assay: SPA competition with 125I-calcitonin, membranes of BHK cells with rat calcitonin receptor (Assay VIII)

| Ratio rCT/rAmylin binding (rat calcitonin receptor [1]) | Ratio hCT/hAmylin binding [2] | IC50 [3] | IC50 (rat calcitonin receptor [4]) | Binder |
| --- | --- | --- | --- | --- |
| 18.8 | 24.4 | 1.48 nM | 27.9 nM | KCNTATCATQRLANFLRHSSPNFGAIPSSTNVGSNTY (C20 diacid-gGlu on the alpha amino group of the N-terminal residue (Lys 1); disulfide bridge between the two Cys residues; C-terminal amide, analogue of human amylin; also called compound 21) [N^α1-[(4S)-4-carboxy-4-(19-carboxynonadecanoylamino)butanoyl]-[Arg17,Pro21,Pro27]-h-amylin] |
| 71.3 | 25 | 1.12 nM | 79.9 nM | KCNTATCATQRLANFLRHSSPNFGAIPSSTNVGSETY (C20 diacid-gGlu on the alpha amino group of the N-terminal residue (Lys 1); disulfide bridge between the two Cys residues; C-terminal amide, analogue of human amylin; also called compound 23) [N^α1-[(4S)-4-carboxy-4-(19-carboxynonadecanoylamino)butanoyl]-[Arg17,Pro21,Pro27,Glu35]-h-amylin] |
